Assay results reported in patent US20140161804A1 (AbbVie / Abbott, published 2014).

B1: IL17-h10F7M11 hIgG1/K mut (antibody, V domains shown)
VH: EVQLVQSGAEVKKPGSSVKVSCKASGYTFTDYEIHWVRQAPGQGLEWMGVNDPESGGTFYNQKFDGRVTLTADESTSTAYMELSSLRSEDTAVYYCTRYSKWDSFDGMDYWGQGTTVTVSS
VL: DIQMTQSPSSLSASVGDRVTITCRASSGIISYIDWFQQKPGKAPKRLIYATFDLASGVPSRFSGSGSGTDYTLTISSLQPEDFATYYCRQVGSYPETFGQGTKLEIK
notes: Full length human IgG1/kappa, IgG1 mut(234,235); also called J439M1S3R5#11; PR-1263009
B2: IL17-h10F7M10 hIgG1/K mut (antibody, V domains shown)
VH: EVQLVQSGAEVKKPGSSVKVSCKASGYTFDDYEIHWVRQAPGQGLEWIGVNDPESGGTFYNQKFDGRATLTADKSTSTAYMELSSLRSEDTAVYYCTRYDKWDSFYGMDYWGQGTTVTVSS
VL: DIQMTQSPSSLSASVGDRVTITCSASSGSISYIDWFQQKPGKAPKRLIYATFELASGVPSRFSGSGSGTDFTLTISSLQPEDFATYYCHQLGSYPDTFGQGTKLEIK
notes: Full length human IgG1/kappa, IgG1 mut(234,235) (HC plasmid pHybE-hCg1,z,non-a,mut(234,235); LC pHybE-hCk); also called J439M1S3R5#10; PR-1262986
B3: IL17-h10F7M-A16 hIgG1/K mut (antibody, V domains shown)
VH: EVQLVQSGAEVKKPGSSVKVSCKASGYTFSDYEIHWVRQAPGQGLEWMGVNDPESGGTFYNQKFDGRVTLTADESTSTAYMELSSLRSEDTAVYYCTRYDKWYSFEGMDIWGQGTTVTVSS
VL: DIQMTQSPSSLSASVGDRVTITCSASQGIRSYIDWFQQKPGKSPKRLIYATFDLASGVPSRFSGSGSGTDYTLTISSLQPEDFATYYCRQVGNYPGTFGQGTKLEIK
notes: Full length human IgG1/kappa, IgG1 mut(234,235); also called h10F7-A16; J439M1S2(H)3 #A16
B4: IL17-h10F7M-A11 hIgG1/K mut (antibody, V domains shown)
VH: EVQLVQSGAEVKKPGSSVKVSCKASGYTFTDYEIHWVRQAPGQGLEWIGVNDPESGGTFYNQKFDGRVTLSADESTSTAYMELSSLRSEDTAVYYCTRYDKYWSFEGMDYWGQGTTVTVSS
VL: DIQMTQSPSSLSASVGDRVTITCRASSGIISYIDWFQQKPGKAPKRLIYATFDLASGVPSRFSGSGSGTDYTLTISSLQPEDFATYYCRQVGSYPETFGQGTKLEIK
notes: Full length human IgG1/kappa, IgG1 mut(234,235); also called h10F7-A11; J439M1S2(H)3 #A11
B5: IL17-h10F7M-B13 hIgG1/K mut (antibody, V domains shown)
VH: EVQLVQSGAEVKKPGSSVKVSCKASGYTFSDYEIHWVRQAPGQGLEWMGVNDPESGGTFYNQKFDGRVTLTADESTSTAYMELSSLRSEDTAVYYCTRYDKYWSFEGMDYWGQGTTVTVSS
VL: DIQMTQSPSSLSASVGDRVTITCRASSGIISYIDWFQQKPGKAPKRLIYATFDLASGVPSRFSGSGSGTDYTLTISSLQPEDFATYYCRQVGSYPETFGQGTKLEIK
notes: Full length human IgG1/kappa, IgG1 mut(234,235); also called h10F7-B13; J439M1S2(H)3 #B13

Tests used:
Human IL-17A [1] = molecular target: T1, Human IL-17A (human, UniProt Q16552 20-155, limits assumed); experiment: ELISA, captured antibody, biotin-human IL-17 titrated
T1 construct: Biotinylated in the ELISAs; purified recombinant protein in SPR; also called hIL17A; hIL-17
Procedure: The following protocol is used to characterize the binding of IL-17 antibodies to human IL-17 by enzyme-linked immunosorbent assay (ELISA). An ELISA plate was coated with 50 μl per well of goat anti mouse IgG-Fc at 2 μg/ml, overnight at 4° C. The plate was washed 3 times with PBS/Tween. 50 μl Mab diluted to 1 μg/ml in PBS/0.1% BSA was added to appropriate wells and incubated for 1 hour at room temperature (RT). The plate was washed 3 times with PBS/Tween. 50 μl of serial diluted biotin-human IL-17 was added to appropriate wells and incubated for 1 hour at RT. The plate was washed 3 times with PBS/Tween. 50 μl of streptavidin-HRP diluted 1:10,000 in PBS/0.1% BSA was added to appropriate wells and incubated for 1 hour at RT. The plate was washed 3 times with PBS/Tween. 50 μl of TMB was added to appropriate wells and the reaction allowed to proceed for 1 minute. The reaction was stopped with 50 μl/well 2N H₂SO₄ and the absorbance read at 450 nm.

Human IL-17A [2] = molecular target: T1, Human IL-17A; experiment: SPR (Biacore T200), antibody captured by anti-human IgG Fc, antigen in solution
Procedure: (§1) The binding of antibodies to purified recombinant IL-17 proteins was determined by surface plasmon resonance-based measurements with a Biacore® T200 instrument (GE Healthcare) using running HBS-EP (10 mM HEPES [pH 7.4], 150 mM NaCl, 3 mM EDTA, and 0.005% surfactant P20) containing 0.1 mg/ml BSA at 25° C. All chemicals were obtained from Biacore® AB (GE Healthcare) or otherwise from a source as described in the text. Approximately 5000 RU of goat anti-human IgG (Fcg) fragment specific polyclonal antibody (Pierce Biotechnology Inc, Rockford, Ill.) diluted in 10 mM sodium acetate (pH 4.5) was directly immobilized across a CM5 research grade biosensor chip using a standard amine coupling kit according to manufacturer's instructions and procedures at 25 μg/ml. Unreacted moieties on the biosensor surface were blocked with ethanolamine. Modified carboxymethyl dextran surface in flowcell 2, 3 and 4 were used as a reaction surface. Modified carboxymethyl dextran with Goat IgG in flow cell 1 was used as the reference surface. For kinetic analysis, rate equations derived from the 1:1 Langmuir binding model were fitted simultaneously to association and dissociation phases of all six injections (using global fit analysis with local float for Rmax) with the use of Biacore T200 Evaluation software v.1.0. Purified antibodies were diluted in HEPES-buffered saline for capture across goat anti-human IgG specific reaction surfaces. Antibodies to be captured as ligand (1-5 μg/ml) were injected over reaction matrices at a flow rate of 50 μl/minute. Association phase was monitored for 5 minute, while dissociation phase was monitored for 10-60 min to accommodate for slower off-rates. The association and dissociation rate constants, ka (unit M-1 s-1) and kd (unit s-1) were determined under a continuous flow rate of 50 μl/minute. Rate constants were derived by making kinetic binding measurements at six different antigen concentrations ranging from 0.78 nM to 100 nM, depending on the species of IL-17 tested. The association ka, dissociation rate kd and equilibrium dissociation constant KD were calculated with the use of the same Biacore T200 Evaluation software v.1.0.

Cynomolgus monkey IL-17A = molecular target: T2, Cynomolgus monkey IL-17A (cynomolgus monkey, UniProt A0A2K5TTB0 24-155); experiment: as above
T2 construct: also called Cyno IL-17AA; Cyno IL17AA
Procedure: as §1

T2 sequence (A0A2K5TTB0 entry or part of it): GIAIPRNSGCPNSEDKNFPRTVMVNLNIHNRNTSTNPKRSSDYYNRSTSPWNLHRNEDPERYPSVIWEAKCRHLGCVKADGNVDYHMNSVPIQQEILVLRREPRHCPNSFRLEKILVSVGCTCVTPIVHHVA
T1 sequence (Q16552 20-155 limits assumed): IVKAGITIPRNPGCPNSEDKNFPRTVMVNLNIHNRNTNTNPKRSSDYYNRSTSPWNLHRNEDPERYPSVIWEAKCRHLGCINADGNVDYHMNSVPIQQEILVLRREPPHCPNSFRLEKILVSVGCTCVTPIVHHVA

Row | Binder | EC50 (Human IL-17A [1]) [pM] | Kd (Human IL-17A [2]) [pM] | koff (Human IL-17A [2]) [s⁻¹] | kon (Human IL-17A [2]) [M⁻¹ s⁻¹] | Kd (Cynomolgus monkey IL-17A) [pM] | koff (Cynomolgus monkey IL-17A) [s⁻¹] | kon (Cynomolgus monkey IL-17A) [M⁻¹ s⁻¹]
1 | B1 | 40 | 1.59 | 7.24e-06 | 4.53e+06 | 0.86 | 3.88e-06 | 4.5e+06
2 | B2 | 30 | 1.53 | 6.8e-06 | 4.45e+06 | 1.06 | 4.4e-06 | 4.14e+06
3 | B3 | 70 | 1.51 | 4.52e-06 | 2.99e+06 |  |  | 
4 | B4 | 40 | 2.1 | 7.68e-06 | 3.64e+06 |  |  | 
5 | B5 | 60 | 2.56 | 6.88e-06 | 2.68e+06 |  |  | 
